Biological target: HIV-1 reverse transcriptase, wild type (HIV-1, UniProt P04585;P04585 588-1147;588-1027)
Test: SPR; SPR: 10 mM HEPES pH 7.5, 150 mM NaCl, 80 mM KCl, 5 mM MgCl2, 25 C, RT on NTA chip; NMR: 10 mM Tris-d11 pD 7.6, 200 mM KCl, 1.5 mM sodium azide, 4 mM MgCl2; inhibition assay 25 C, 30 min
Details: protein: recombinant; (NTA chip capture); copies: 1;1

GTGCAAGCGTACGAAGGGATAATTCACTCTAGGAGCTTCT (ssDNA) [KY44]
Kd: 2.15 µM

CTATAGGGGGTTGCATCTTAGACATTAATGTTCATTTACA (ssDNA) [KY23]
Kd: 0.0552 µM

CACACTAAGGGAGTAGGAATCCGCGGTCACAATGTTCCTG (ssDNA) [KY22]
Kd: 1.04 µM

CCAGAAAGCTCGGGTTCGTTCCACAAATAACACTTGCCC (ssDNA) [KY28]
Kd: 1.02 µM

AGTAAGACTATAATTCAGTCCTCATTGATTTCCCACATCG (ssDNA) [KY1]
Kd: 2.17 µM
